Reference: publication PMC2172055

What was measured:
[1] = target: Sec61α (canine (endogenous in MDCK)) (UniProt P38377); test: FRET or BRET
[2] = target: Sec61β (canine (endogenous in MDCK)) (UniProt P60467); test: FRET or BRET
Sec61β (canine (endogenous in MDCK)), sequence (P60467 whole entry): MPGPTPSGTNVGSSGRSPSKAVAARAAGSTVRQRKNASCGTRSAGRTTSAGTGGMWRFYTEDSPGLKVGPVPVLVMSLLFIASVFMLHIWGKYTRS

Sec61α (canine (endogenous in MDCK)), sequence (P38377 whole entry): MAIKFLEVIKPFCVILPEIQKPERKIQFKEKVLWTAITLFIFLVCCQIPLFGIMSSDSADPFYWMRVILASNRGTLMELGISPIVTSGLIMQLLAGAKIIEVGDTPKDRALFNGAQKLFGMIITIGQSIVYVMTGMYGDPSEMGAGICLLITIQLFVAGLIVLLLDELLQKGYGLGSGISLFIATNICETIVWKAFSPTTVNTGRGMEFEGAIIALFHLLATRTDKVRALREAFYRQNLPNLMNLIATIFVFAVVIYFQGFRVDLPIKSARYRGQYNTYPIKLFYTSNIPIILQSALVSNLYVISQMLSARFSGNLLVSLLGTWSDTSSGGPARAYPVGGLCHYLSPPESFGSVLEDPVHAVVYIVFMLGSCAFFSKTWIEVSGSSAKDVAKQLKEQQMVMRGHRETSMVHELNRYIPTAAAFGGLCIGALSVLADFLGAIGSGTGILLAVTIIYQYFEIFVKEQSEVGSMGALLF
Sec61α, sequence (P38377 whole entry): as above
Sec61β, sequence (P60467 whole entry): as the sequence (P60467 whole entry) above

FRET efficiency (pactamycin-treated cells) [1] | FRET efficiency (puromycin-treated cells) [1] | FRET efficiency (untreated cells) [1] | FRET efficiency (pactamycin-treated cells) [2] | FRET efficiency (puromycin-treated cells) [2] | FRET efficiency (untreated cells) [2] | FRET efficiency (untreated cells, Fig. 3 A, donor to acceptor antibody 1:8) [2] | stoichiometry N [2] | FRET efficiency (untreated cells, Fig. 3 B) [2] | Substance
46.8% | 46.1% | 41.8% | 23.9% | 24.8% | 21.4% | 17% | > 2 |  | Sec61β (from UniProt P60467 1-96) (natural protein)
35.5% | 33.6% | 38.3% | 28% | 27.9% | 26.4% |  |  | 30% | Sec61α (from UniProt P38377 1-476) (natural protein)
